Data published in paper PMC5913291.

Target: T1, Interferon regulatory factor 3 (IRF-3) (human (endogenous in HEK293T)), Q14653
T1 chain: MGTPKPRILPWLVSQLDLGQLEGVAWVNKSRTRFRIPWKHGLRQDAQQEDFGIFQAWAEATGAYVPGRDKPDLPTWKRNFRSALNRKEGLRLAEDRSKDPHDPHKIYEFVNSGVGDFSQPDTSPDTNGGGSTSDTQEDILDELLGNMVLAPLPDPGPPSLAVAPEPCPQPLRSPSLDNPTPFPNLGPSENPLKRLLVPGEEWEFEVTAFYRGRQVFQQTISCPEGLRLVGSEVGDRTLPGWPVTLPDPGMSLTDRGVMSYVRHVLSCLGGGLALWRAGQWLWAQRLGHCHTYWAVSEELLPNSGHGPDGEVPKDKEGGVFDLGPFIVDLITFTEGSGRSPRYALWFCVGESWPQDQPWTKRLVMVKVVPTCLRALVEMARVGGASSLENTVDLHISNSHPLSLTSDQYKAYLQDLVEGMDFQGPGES
Assay: native gel or EMSA; lysates of HEK293T cells transfected with HCV 3'-UTR RNA, left untreated or treated with 2.5 mM cFP, 12 h post-transfection; native PAGE and immunoblot for IRF-3 dimers
Details: remark: other sources report otherwise

B1: Interferon regulatory factor 3 (IRF-3), Q14653 1-427 (natural protein)
chain: T1 chain
stoichiometry N: 2
